The conditions of this data set: Pseudomonas aeruginosa (strain ATCC 15692 / DSM 22644 / CIP 104116 / JCM 14847 / LMG 12228 / 1C / PRS 101 / PAO1); pH 7; 10 °C; Urea; Fluorescence; sodium phosphate 50 mM; reversible: yes; whole UniProt chain shown.

B1: Cytochrome c-551 wild type, P00099 (protein)
chain: MKPYALLSLLATGTLLAQGAWAEDPEVLFKNKGCVACHAIDTKMVGPAYKDVAAKFAGQAGAEAELAQRIKNGSQGVWGPIPMPPNAVSDDEAQTLAKWVLSQK
Regarding B1, the denaturant m value was 1.1 kcal/mol/M, the “denaturant midpoint (higher = more stable)” value amounted to 6.4 M and the unfolding free energy came out at 7.1 kcal/mol.

(Values after FireProtDB (doi:10.1006/jmbi.2001.4728).)
